{
  "source": "paper PMC5560242",
  "key": {"MBNL1-zf12 [1]": {"target": "T1, MBNL1-zf12 (Homo sapiens, UniProt Q9NR56 1-92)", "T1 sequence": "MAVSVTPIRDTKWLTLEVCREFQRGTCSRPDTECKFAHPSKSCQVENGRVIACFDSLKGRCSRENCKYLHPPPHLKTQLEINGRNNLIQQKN", "test": "NMR HSQC titration"}, "MBNL1-zf12 [2]": {"target": "T1, MBNL1-zf12", "test": "BLI"}, "MBNL1-zf12 [3]": {"target": "T1, MBNL1-zf12", "test": "BLI", "remark": "listed apart in the source"}},
  "note": "Like-named read-outs stand apart in the source and are kept apart here.",
  "data": [
    {"binder": "CUCGCUUUUCCCC (ssRNA)", "note": "[hcTnT13]", "values": [
      {"measurement": "binding result", "setting": "MBNL1-zf12 [1]", "result": "binds"}
    ]},
    {"binder": "GUCUCGCUUUUCCCC (ssRNA)", "note": "[hcTnT15]", "values": [
      {"measurement": "Kd", "setting": "MBNL1-zf12 [2]", "result": 130, "unit": "nM"}
    ]},
    {"binder": "GUCUCGCUGUUCCCC (ssRNA)", "note": "[hcTnT15m (U103G)]", "values": [
      {"measurement": "Kd", "setting": "MBNL1-zf12 [3]", "result": 500, "unit": "nM"}
    ]}
  ]
}
